Measured values published in patent US20240239875A1 (published 2024).

T1: HKU1 spike protein (HCoV-HKU1)
T1 chain: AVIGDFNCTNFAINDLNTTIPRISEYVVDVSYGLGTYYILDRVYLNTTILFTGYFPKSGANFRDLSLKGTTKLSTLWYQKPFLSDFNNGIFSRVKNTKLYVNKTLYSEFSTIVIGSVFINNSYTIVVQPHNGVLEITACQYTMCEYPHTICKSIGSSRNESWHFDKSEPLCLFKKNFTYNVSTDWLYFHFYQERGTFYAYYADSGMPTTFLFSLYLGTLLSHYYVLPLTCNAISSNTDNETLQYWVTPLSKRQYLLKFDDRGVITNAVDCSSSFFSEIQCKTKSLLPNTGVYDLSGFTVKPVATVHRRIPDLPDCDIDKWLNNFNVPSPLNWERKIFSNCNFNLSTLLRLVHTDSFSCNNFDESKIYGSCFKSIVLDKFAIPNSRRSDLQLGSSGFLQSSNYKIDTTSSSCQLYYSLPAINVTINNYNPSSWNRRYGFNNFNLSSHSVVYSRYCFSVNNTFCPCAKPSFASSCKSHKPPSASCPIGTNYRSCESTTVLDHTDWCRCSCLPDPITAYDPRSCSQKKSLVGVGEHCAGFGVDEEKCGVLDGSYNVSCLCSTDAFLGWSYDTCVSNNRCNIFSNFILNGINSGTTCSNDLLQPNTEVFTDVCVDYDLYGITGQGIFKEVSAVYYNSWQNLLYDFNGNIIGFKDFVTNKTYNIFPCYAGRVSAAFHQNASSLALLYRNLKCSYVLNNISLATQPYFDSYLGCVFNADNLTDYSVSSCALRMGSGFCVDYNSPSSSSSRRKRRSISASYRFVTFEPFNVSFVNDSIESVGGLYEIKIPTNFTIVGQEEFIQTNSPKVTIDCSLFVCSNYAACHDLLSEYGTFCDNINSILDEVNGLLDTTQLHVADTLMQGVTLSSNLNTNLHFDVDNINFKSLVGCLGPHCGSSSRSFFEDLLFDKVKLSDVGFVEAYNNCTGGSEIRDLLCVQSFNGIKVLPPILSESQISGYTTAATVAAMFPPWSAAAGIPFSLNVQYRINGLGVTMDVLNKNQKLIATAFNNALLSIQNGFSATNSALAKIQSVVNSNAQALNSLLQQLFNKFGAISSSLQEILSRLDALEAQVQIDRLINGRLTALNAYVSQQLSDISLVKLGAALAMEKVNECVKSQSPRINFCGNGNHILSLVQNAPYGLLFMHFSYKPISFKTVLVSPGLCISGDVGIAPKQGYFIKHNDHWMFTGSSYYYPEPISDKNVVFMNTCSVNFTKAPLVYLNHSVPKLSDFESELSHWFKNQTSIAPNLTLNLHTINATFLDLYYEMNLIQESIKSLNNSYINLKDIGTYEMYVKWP

T2: MERS spike protein (MERS-CoV, UniProt K9N5Q8 18-1296)
T2 chain: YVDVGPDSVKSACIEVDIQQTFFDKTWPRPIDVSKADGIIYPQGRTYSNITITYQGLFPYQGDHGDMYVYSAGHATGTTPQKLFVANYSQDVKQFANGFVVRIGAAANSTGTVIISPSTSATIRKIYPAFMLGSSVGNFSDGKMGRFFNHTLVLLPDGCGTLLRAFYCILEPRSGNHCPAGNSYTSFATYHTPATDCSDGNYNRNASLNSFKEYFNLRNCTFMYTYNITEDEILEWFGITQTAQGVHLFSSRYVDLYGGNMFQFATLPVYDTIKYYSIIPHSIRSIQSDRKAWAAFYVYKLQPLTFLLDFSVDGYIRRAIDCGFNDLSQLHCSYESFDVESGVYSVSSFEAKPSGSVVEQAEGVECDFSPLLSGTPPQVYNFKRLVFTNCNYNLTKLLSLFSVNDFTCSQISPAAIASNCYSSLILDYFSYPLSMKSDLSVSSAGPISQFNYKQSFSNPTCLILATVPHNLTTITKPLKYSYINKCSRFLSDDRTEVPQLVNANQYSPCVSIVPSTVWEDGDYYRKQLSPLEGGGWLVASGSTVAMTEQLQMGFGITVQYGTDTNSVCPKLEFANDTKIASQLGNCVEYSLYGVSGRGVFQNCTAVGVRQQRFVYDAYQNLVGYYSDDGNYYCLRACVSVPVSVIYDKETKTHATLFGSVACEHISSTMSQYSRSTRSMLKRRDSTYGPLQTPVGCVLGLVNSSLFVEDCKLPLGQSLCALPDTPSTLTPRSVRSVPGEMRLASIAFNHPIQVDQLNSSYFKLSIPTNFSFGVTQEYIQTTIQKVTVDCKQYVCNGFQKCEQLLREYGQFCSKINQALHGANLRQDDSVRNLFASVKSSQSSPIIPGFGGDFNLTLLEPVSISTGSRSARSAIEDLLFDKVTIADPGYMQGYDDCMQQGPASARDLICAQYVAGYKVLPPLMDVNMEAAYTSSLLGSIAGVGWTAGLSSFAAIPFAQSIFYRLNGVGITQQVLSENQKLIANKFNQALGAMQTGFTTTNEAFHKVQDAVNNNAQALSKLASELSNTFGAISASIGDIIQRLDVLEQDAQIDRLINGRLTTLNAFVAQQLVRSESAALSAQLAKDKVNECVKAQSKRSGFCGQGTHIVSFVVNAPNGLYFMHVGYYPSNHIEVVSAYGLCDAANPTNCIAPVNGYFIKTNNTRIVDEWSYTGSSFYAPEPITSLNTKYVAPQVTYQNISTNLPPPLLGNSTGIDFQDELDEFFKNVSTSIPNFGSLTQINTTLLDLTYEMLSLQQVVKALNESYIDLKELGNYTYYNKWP

B1: 4-N22-A (antibody, V domains shown)
VH: QVQLQQPGTELVKPGASVKLSCKASGYTFTNYWMYWVKQRPGQGLDWIGNINPSNGGTNYNEKFKSKATLTVDKSSSTAYMQLSSLTSEDSAVYYCARETGNYWGQGTTLTVSS
VL: DILMTQSPSSMSVSLGDTVSISCHASQGISSNIGWLQQKPGKSFKGLIYHGTNLEDGVPSRFSGSGSGADYSLTISSLESEDFADYYCVQYAQFPYTFGGGTKLEIK
B2: 10-B11-A (antibody, V domains shown)
VH: QVQLQQPGAELVKPGASVKVSCKASGYTFTSYWMHWVKQRPGQGLEWIGRIHPSDSDTNYYQKFKGKATLSVDKSSSTAYMQLSSLTSEDSAVYYCAIPLYSYDNSGGYYPMDYWGQGTSVTVSS
VL: DIVMTQSQKFMSTSVGDRVTITCKASQNVRTAVAWYQQKPGQSPKKLIYLASNRHTGVPDRFTGSGSGTDFTLAISNVQSEDLADYFCLQHWNYPFTFGSGTRLEIK

Experiments:
Assay in all cases: ELISA
[1] = biological target: SARS-CoV-2 receptor binding domain (UniProt P0DTC2 319-541)
[2] = biological target: SARS-CoV-2 prefusion stabilized trimer protein (WIV02 isolate spike protein) (UniProt P0DTC2 14-1213)
[3] = biological target: T1, HKU1 spike protein
[4] = biological target: SARS-CoV-2 S2 domain (UniProt P0DTC2 686-1213)
[5] = biological target: T2, MERS spike protein
[6] = biological target: SARS-CoV-1 spike protein (SARS-CoV-1, UniProt P59594 14-1195)

Row | Binder | EC50 [1] | EC50 [2] | EC50 [3] | EC50 [4] | EC50 [5] | EC50 [6]
1 | B1 | 0.21 nM | 17.8 nM | 15.8 nM |  |  | 
2 | B2 |  |  | > 200 nM | 1.13 nM | > 200 nM | 20.8 nM
